{"source": "paper PMC4446944", "about": "“The maize cytochrome P450 CYP79A61 produces phenylacetaldoxime and indole-3-acetaldoxime in heterologous systems and might contribute to plant defense and auxin formation” (BMC Plant Biology, 2015)", "key": {"[1]": {"substrate": "N[C@@H](Cc1c[nH]c2ccccc12)C(=O)O", "experiment": "yeast microsomes, LC-MS/MS of (E/Z)-indole-3-acetaldoxime formed", "format": "biochemical, Zea mays", "details": "1 mM NADPH, 75 mM sodium phosphate pH 7.0, 25 °C, 30 min, microsomes with Arabidopsis CPR1"}, "[2]": {"substrate": "N[C@@H](Cc1ccccc1)C(=O)O", "experiment": "yeast microsomes, LC-MS/MS of (E/Z)-phenylacetaldoxime formed", "format": "biochemical, Zea mays", "details": "1 mM NADPH, 75 mM sodium phosphate pH 7.0, 25 °C, 30 min, microsomes with Arabidopsis CPR1"}}, "data": [{"protein": "CYP79A61 (Zea mays subsp. mays) (protein, complete open reading frame, untagged as far as told, pESC-Leu2d, Saccharomyces cerevisiae WAT11 microsomes with Arabidopsis CPR1) MVSSPQANKFPLRKQISSPSSSCMAPHVLLVLVILLYLVRTLRPWRSRRNSTCCTPSLPPGPVPWPVVGNLPEMMLSDKPAFHWIHHIMKEAGTDIACIKLGGVHVIPISCPKIALEVLSNQDANFASRPLTFASKTFSTGYRDAAMSHCGDHWKKMRRVLASEIVCPSRHRWLHDKRADEADNLTRYVYNLATKAGSSGAVDVRHIARHYCGNVVRRLMFNTRYFGKPQPDSGPGPLEVQHVDAVFTSLGLLYSFCVSDYLPWLLGLDLDGHEKMVKEANERVTRLHDAVIDERWRLWKSGERRELEDFLDVLIMLKDAEAGRPVLSIEEVKALLMDITFASMDNPSNAVEWALAEMVNNPTMLKKAVDEIDSVVGQERLVQEHDIPRLNYTKACIREAFRLHPVAPFNVPHVAVADATVAGYRIPKGSHVILSRTGLGRNPDVWDDPLRFDPERHIPLSPEMEVSLVERDLRFISFSTGRRGCIAAALGTDMTIMLFGRLLQGFSWSKMTGVAAIDLSESRHNTFMARPLVLQAKPRLPAHLYPGILLCK", "values": [{"measurement": "Km", "setting": "[1]", "value": "150.2 ± 9.2", "unit": "µM"}, {"measurement": "Km", "setting": "[2]", "value": "117.2 ± 6.0", "unit": "µM"}]}]}
